Assay results as given in patent US6423827 (UNIVERSITY OF MEDICINE AND DENTISTRY OF NEW JERSEY, dated 2002).

Biological target: T1, recombinant rat LAMP (limbic system-associated membrane protein) expressed at the surface of CHO cells (CHOL … (rat, UniProt Q62813 29-315, PI (GPI) linkage to the membrane at the processed C-terminus, at or near Asn315)); N-linked glycosylation (apparent 55 kDa))
T1 construct: The C-terminal limit 315 is only 'at or near'; also called LAMP cDNA transfected cells
T1 sequence: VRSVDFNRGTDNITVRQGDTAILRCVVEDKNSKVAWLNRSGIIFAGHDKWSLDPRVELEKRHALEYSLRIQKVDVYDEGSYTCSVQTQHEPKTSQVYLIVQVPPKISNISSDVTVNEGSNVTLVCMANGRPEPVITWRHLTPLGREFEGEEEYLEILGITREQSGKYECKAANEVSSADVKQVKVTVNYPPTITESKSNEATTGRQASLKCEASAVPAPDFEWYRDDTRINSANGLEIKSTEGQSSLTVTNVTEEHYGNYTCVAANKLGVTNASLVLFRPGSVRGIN
Test: fluorescent beads coated with native LAMP, incubated with CHO cells expressing rat LAMP
Experimental: To test whether CHO_L cells can bind external LAMP, fluorescent synthetic beads of 2 μm diameter, which have reactive sites for covalently linking protein (Covasphere™ beads, Duke Scientific, Palo Alto, Calif.), were coated with native LAMP that had been released from hippocampal membranes with PI-specific phospholipase C. The beads were incubated with the recombinant cells and the extent of binding to the cell surface determined.

B1: native rat LAMP from hippocampal membranes (receptor)
chain: VRSVDFNRGTDNITVRQGDTAILRCVVEDKNSKVAWLNRSGIIFAGHDKWSLDPRVELEKRHALEYSLRIQKVDVYDEGSYTCSVQTQHEPKTSQVYLIVQVPPKISNISSDVTVNEGSNVTLVCMANGRPEPVITWRHLTPLGREFEGEEEYLEILGITREQSGKYECKAANEVSSADVKQVKVTVNYPPTITESKSNEATTGRQASLKCEASAVPAPDFEWYRDDTRINSANGLEIKSTEGQSSLTVTNVTEEHYGNYTCVAANKLGVTNASLVLFRPGSVRGIN
modifications: N-linked glycosylation (apparent 64-68 kDa)
notes: The C-terminal limit 315 is only 'at or near'; also called native LAMP; external LAMP
  binding result: binds
